Like-named read-outs stand apart in the source and are kept apart here.
How the values were obtained:
[1] = molecular target: GluR6Δ2 F58A mutant ATD (rat) (UniProt P42260); assay: AUC
[2] = molecular target: GluR6Δ2 ATD (G215N/M217T glycan wedge mutant) (rat) (UniProt P42260); assay: AUC
[3] = molecular target: KA2 amino terminal domain (ATD), wild type (rat) (UniProt Q63273); assay: AUC
[4] = molecular target: KA2 amino terminal domain (ATD), wild type (rat) (UniProt Q63273); assay: AUC; remark: listed apart in the source
SEC-MALS = molecular target: the molecule itself; assay: SEC-MALS
AUC [5] = molecular target: the molecule itself; assay: AUC
AUC [6] = molecular target: the molecule itself; assay: AUC; remark: listed apart in the source
AUC [7] = molecular target: the molecule itself; assay: AUC; remark: listed apart in the source

Work on “KA2 Y57A mutant ATD (domain or fragment)” yielded a Kd [1] of 1.63 µM and a Kd [2] of 0.14 µM.

Molecule “KA2 Y57A/E156A mutant ATD (domain or fragment)” has a Kd [1] of 2 µM.

For “KA2 Y57A/L163A mutant ATD (domain or fragment)”, the Kd [1] was 6.7 µM.

Work on “KA2 Y57A/S165G/T168A mutant ATD (domain or fragment)” yielded a Kd [1] of 13 µM.

“KA2 amino terminal domain (ATD), wild type (from UniProt Q63273 20-406) (domain or fragment)” showed a Kd [3] of 410 µM and a Kd [4] of 350 µM.

B1: GluR6 amino terminal domain (ATD), wild type (domain or fragment, rat)
chain: TTHVLRFGGIFEYVESGPMGAEELAFRFAVNTINRNRTLLPNTTLTYDTQKINLYDSFEASKKACDQLSLGVAAIFGPSHSSSANAVQSICNALGVPHIQTRWKHQVSDNKDSFYVSLYPDFSSLSRAILDLVQFFKWKTVTVVYDDSTGLIRLQELIKAPSRYNLRLKIRQLPADTKDAKPLLKEMKRGKEFHVIFDCSHEMAAGILKQALAMGMMTEYYHYIFTTLDLFALDVEPYRYSGVNMTGFRILNTENTQVSSIIEKWSMERLQAPPKPDSGLLDGFMTTDAALMYDAVHVVSVAVQQFPQMTVSSLQCNRHKPWRFGTRFMSLIKEAHWEGLTGRITFNKTNGLRTDFDLDVISLKEEGLEKIGTWDPASGLNMTESQKGK
modifications: N-linked glycans
B1: binds (SEC-MALS).

B2: GluR6Δ2 ATD (G215N/M217T glycan wedge mutant) (domain or fragment, rat)
chain: TTHVLRFGGIFEYVESGPMGAEELAFRFAVNTINRNRTLLPNTTLTYDTQKINLYDSFEASKKACDQLSLGVAAIFGPSHSSSANAVQSICNALGVPHIQTRWKHQVSDNKDSFYVSLYPDFSSLSRAILDLVQFFKWKTVTVVYDDSTGLIRLQELIKAPSRYNLRLKIRQLPADTKDAKPLLKEMKRGKEFHVIFDCSHEMAAGILKQALAMNMTTEYYHYIFTTLDLFALDVEPYRYSGVNMTGFRILNTENTQVSSIIEKWSMERLQAPPKPDSGLLDGFMTTDAALMYDAVHVVSVAVQQFPQMTVSSLQCNRHKPWRFGTRFMSLIKEAHWEGLTGRITFNKTNGLRTDFDLDVISLKEEGLEKIGTWDPASGLNMTESQKGK
modifications: N-linked glycans, one introduced by the mutations (glycan wedge)
In the case of B2, the Kd (AUC [5]) is reported as 0.25 µM, the Kd (AUC [6]) is reported as 0.35 µM and the “stoichiometry N” value (SEC-MALS) is reported as 2.

B3: GluR6Δ1 ATD (A213N/G215S glycan wedge mutant) (domain or fragment, rat)
chain: TTHVLRFGGIFEYVESGPMGAEELAFRFAVNTINRNRTLLPNTTLTYDTQKINLYDSFEASKKACDQLSLGVAAIFGPSHSSSANAVQSICNALGVPHIQTRWKHQVSDNKDSFYVSLYPDFSSLSRAILDLVQFFKWKTVTVVYDDSTGLIRLQELIKAPSRYNLRLKIRQLPADTKDAKPLLKEMKRGKEFHVIFDCSHEMAAGILKQALNMSMMTEYYHYIFTTLDLFALDVEPYRYSGVNMTGFRILNTENTQVSSIIEKWSMERLQAPPKPDSGLLDGFMTTDAALMYDAVHVVSVAVQQFPQMTVSSLQCNRHKPWRFGTRFMSLIKEAHWEGLTGRITFNKTNGLRTDFDLDVISLKEEGLEKIGTWDPASGLNMTESQKGK
modifications: N-linked glycans, one introduced by the mutations (glycan wedge)
For B3, the “stoichiometry N” value (SEC-MALS) was 2.

B4: wt GluR6/KA2 ATD heterodimer (complex, rat)
chain 1: TTHVLRFGGIFEYVESGPMGAEELAFRFAVNTINRNRTLLPNTTLTYDTQKINLYDSFEASKKACDQLSLGVAAIFGPSHSSSANAVQSICNALGVPHIQTRWKHQVSDNKDSFYVSLYPDFSSLSRAILDLVQFFKWKTVTVVYDDSTGLIRLQELIKAPSRYNLRLKIRQLPADTKDAKPLLKEMKRGKEFHVIFDCSHEMAAGILKQALAMGMMTEYYHYIFTTLDLFALDVEPYRYSGVNMTGFRILNTENTQVSSIIEKWSMERLQAPPKPDSGLLDGFMTTDAALMYDAVHVVSVAVQQFPQMTVSSLQCNRHKPWRFGTRFMSLIKEAHWEGLTGRITFNKTNGLRTDFDLDVISLKEEGLEKIGTWDPASGLNMTESQKGK
chain 2: VLSSLRMAAILDDQTVCGRGERLALALAREQINGIIEVPAKARVEVDIFELQRDSQYETTDTMCQILPKGVVSVLGPSSSPASASTVSHICGEKEIPHIKVGPEETPRLQYLRFASVSLYPSNEDVSLAVSRILKSFNYPSASLICAKAECLLRLEELVRGFLISKETLSVRMLDDSRDPTPLLKEIRDDKVSTIIIDANASISHLVLRKASELGMTSAFYKYILTTMDFPILHLDGIVEDSSNILGFSMFNTSHPFYPEFVRSLNMSWRENCEASTYPGPALSAALMFDAVHVVVSAVRELNRSQEIGVKPLACTSANIWPHGTSLMNYLRMVEYDGLTGRVEFNSKGQRTNYTLRILEKSRQGHREIGVWYSNRTLAMNATTLDI
modifications: N-linked glycans | N-linked glycans
In the case of B4, the Kd (AUC [7]) is reported as 6.2 µM.

— PMC3145919 (Neuron, 2011)
